Results published in the DeepSol protein solubility set.

Assay: soluble on expression in E. coli; label from the status in PepcDB or PDB records

Sequence | soluble on expression in E. coli
MVLLSFDIEEFDVPLEQGYKDFPSEEQLRISRQGTEAILHILRKKGVRSTFFSTVTFWESLPEDLRKGIYTDGHELASHGVFHSSFSKEHLAESRQKLASLWDGTDVCGFRMPRMMPVGDAEIAEAGYLYNSSLNPTCIPGRYNHLSAPRLPYFDKYGVLQMPSSVTPLLRFPLFWLSLHHLPLRLYIRMIRHTVRRDNYLNLYFHPWEFAEISCLPDCKLSYTVTHNSGEKMCRRLEAVIDTLLADGCSFGTFSDYYRFQKQG | not soluble
TPYDPLTLWTTPDPPPNCSLIQELDAKLTLCLTKNGSIVNGIVSLVGVKGNLLNIQSTTTTVGVHLVFDEQGRLITSTPTALVPQASWGYRQGQSVSTNTVTNGLGFMPNVSAYPRPNASEAKSQMVSLTYLQGDTSKPITMKVAFNGITSLNGYSLTFMWSGLSNYINQPFSTPSCSFSYITQE | soluble
DAQNYFQATEIRTMIALLQLIDNPYQDIPLAAVLRSPIVGLKENELVLIRLANKETSYYEAFLTFNQKMEPTMEEAVVQEKTIRFAESLEKWREQARRNQISNLLWTIYRETAYLDYVGGLPVGKQRQANLYALVDRAAAYEKTTFRGLFQFVRFIEKMQEKDKDLAEPVVLSEENAVRV | not soluble
GPEQAMYSFMTYYIAMKTIDAVIQGLDETKAVIIVSEQYDEISDAILHRLGRGTTKLKGKGGYTDEEKDVIYAVVTRLEVTKLKSIVFEVDQNAFITIMNTHETRGGKFKNAIH | not soluble
MDALIAQLQRQFRDYTISLYQQGFLDDQFTELKKLQDDGSPDFVSEVLSLFFEDCVKLISNMARALDTTGTVDFSQVGASVHQLKGSSSSVGAKRVKTLCVSFKECCEAKNYEGCVRCLQQVDIEYKALKTKLQDMFNLEKQIIQAGGIVPQVDIN | soluble
MKPDAHQVKQFLLNLQDTICQQLTAVDGAEFVEDSWQREAGGGGRSRVLRNGGVFEQAGVNFSHVHGEAMPASATAHRPELAGRSFEAMGVSLVVHPHNPYVPTSHANVRFFIAEKPGAEPVWWFGGGFDLTPFYGFEEDAIHWHRTARDLCQPFGEDVYPRYKKWCDDYFYLKHRNEQRGIGGLFFDDLNTPDFDHCFAFMQAVGKGYTDAYLPIVERRKAMAYGERERNFQLYRRGRYVEFNLVWDRGTLFGLQTGGRTESILMSMPPLVRWEYDYQPKDGSPEAALSEFIKVRDWGLEHHHHHH | not soluble
MQDLSAVKAFHALCQHKSLTAAAKALEQPKSTLSRRLAQLEEDLGQSLLMRQGNRLTLTKAGEVFAVYSEQLLELANKSQEALQELNNQVTGELTLVVHPNLIRGWLSQVLDEFMQQHSTLKIRLLSQFQHSDEVFEPDLIIWIEHAAPMGYRKERLGYWRYAAYASPKYLAHRDKPTHPRELIHHPWIDFIACRRAELELHHPEFGSYSLPALESRLQSDNLAMQADAIAKGRGIGLLPTWFANGFETAHPGSLIPCVNGWQSQPTEINCFYPLGRHPLRLRLFIDALRQARPDEWQ | not soluble
MGSDKIHHHHHHMELQLQNLALSFKNKPNVIHDISLTMNGGSIVGIVAPNGTGKTTLLRLILNDLKPQAGKVLVDGKSYGSQKQSLALHRQMCLFPVQDDLYPDLSGKAHLEYYAKLWHNRSKSVKQIINVLDMRDYINQPVRTYSMGMKQRLCFGMVMAANTPIMLLDEFMNGLDTINVARMSRILRGLRAEGKLIITVSHLLNNLQGYADLIYFMRDGKIIKTIDQHEQQPLYVQVAEENASRLPRMPWEHYPNGMLVLPIQKLPGEHFNQLLLGLAAHHIPFKLGPLDLDTYFNEFYETDQ | not soluble
MKKALSLLTVSALSIGMLSACGPKDSGKKEESKAKKDYDLLVWEDDKKGVGLEPAVKSFEEKYKVKVKVVEMQMTDQVKKLRLDGPAGTGPDVVTLPHDQIGNAVTEGLLSEVKADDAVKSKFTDSSIEAQTYNGKLYGLPKAIETPVFIYNKKLMPKAPETMDELFNFSKEFTKDGKYGFLALGDNFYFANAFMAGMGGYVFGEKDGKPNASDVGLNNSGAVQGAEYLQKWYKEKLFPKGIIGESGGPAADGLFNEGKAASIMNGPWAFQAMEKNGIDYGVAPMPKLPNGQPLKTFVGVKGWHVTSFSKQNDLATKFTEWVTNEENAKIRFEKTKEIPPVKAVMEDPIIKDNEAAKAVATQSENGIPMPNIPEMQEVWKPAGDALQLVVTDKEAPKAALDSAVKQIKGNIEANHSKQK | not soluble
GPGSMMELPMEMNVDGVPMVLSKVSYSPMLDFGGTFSYRRYCFVGELQPEGYVNWFFAPLEGYKDKRLRVHESAVKEGALNHLVFMRLGELSFRQYKLKHIPSPTEQPHSPVTPQGDSTKQLMGHAHPHFNYIFEAMRQDQASSPSPRSSSIGSDCTYHSSKESCESLQMSSSLVDLPGKRLSNASLRSGVRPPLEARRGAVCDDEGFLPPVRSLKKSSERSQEL | not soluble
RRRAKGLRREEVAQLAGISATWLTWLEQGRSESVSAQTLSRLAAALQLSGAETDYLFDLAGLKNPQEKRADANPQAREILEEMLPRIDMPAYVLDRLWRAVAWNRAAEELFC | not soluble
MSLKITILAVGKLKEKYWKQAIAEYEKRLGPYTKIDIIEVPDEKAPENMSDKEIEQVKEKEGQRILAKIKPQSTVITLEIQGKMLSSEGLAQELNQRMTQGQSDFVFVIGGSNGLHKDVLQRSNYALSFSKMTFPHQMMRVVLIEQVYRAFKIMRGEAYHK | soluble
MSSTMKDTQEAPVRWSRNWTPDAIRALVDQDNGKLDARIYADQDLYQLELERVFGRSWLMLGHETHIPKIGDYLTTYMGEDPVIMVRQKDQSIKVFLNQCRHRGMRIVRSDGGNAKAFTCTYHGWAYDIAGNLVNVPFEKEAFCDKKEGDCGFDKADWGPLQARVETYKGLVFANWDPEAPDLKTYLSDAMPYMDVMLDRTEAGTEAIGGIQKWVIPCNWKFAAEQFCSDMYHAGTMSHLSGVLAGLPPEMDLTQIQLSKNGNQFRSAWGGHGAGWFINDSSILLSVVGPKITQYWTQGPAAEKAARRVPQLPILDMFGQHMTVFPTCSFLPGINTIRTWHPRGPNEVEVWAFVLVDADAPEDIKEEFRLQNIRTFNAGGVFEQDDGENWVEIQRVMRGHKAKSTSLCAKMGLNVPNKNNPAYPGKTAYVYAEEAARGMYHHWSRMMSEPSWDTLKP | soluble
MSLGSIKDNLSEIRNKIDKAAKKVDRDSKEITLLAVTKTVDVDLVNEAMREGITSVGENKPQELARKYDIIGDKLNWHLIGTLQTNKVKYIIDKVCMIHSLDRIALCEEIQKRAEQINREIDCLVQVNISKEESKHGLDREEVVDFVKEVSEKYKNIKIKGLMTMAPFIEDEDEIRGVFKGLKDLSKQIKELNIPNVGMDVLSMGMSHDYEIAIEEGATIVRVGTSIFGERNYNKEGHHHHHH | soluble
MIPTATYRLQFRNGMTFDRAAALVPYLKNLGISHLYASPIFTATKASTHGYDVTDANEIEPSIGGREGFERLVAELKAQGLGLIIDIVPNHMASSLENAWWRDVLEYGKESRYARHFDIDWSRRLTLPFLGDTFDAVLENGEIAIKPDPATGKPAFAYYDNYYPLAPATWQGREAEILALTDKAAIADLHERQPWKLMSWRDAARSLSYRRFFEVTGLVGMRVEDKTVFDDTHRLILELVRTGAVDGLRIDHIDGLADPKAYLARLRQEVGPACYITVEKILAKGEQLPDDWPVSGTTGYEFIASLAEVLVDDEQIDNLRQAYETVKGAPVDMRAELRAAKLLMVDRNFEGEFTRLLALALSIASELQIAQEESVVRQALRELLIAFPVYRTYGTAEGLPPTDICLLHRIVERVKTLETPPQPEALTFLSRLLTGDVPASSQEEATQFRVRFQQLTGPLMAKSVEDTLFFRQNMGLALNEVGAEPVTHHFSIERFHHEMKTRQARQPDALSGTSTHDTKRGEDARARLYTLTEAPEQWSECLARWRQMNQTHVKFLNDGTAPKSADTWMLYQALTGVWPPVLQPQDETGLNALKTRFEAFVEKALREAKLRTDWVDSNEAYETAMLDYARYLLAPDNQTFLQDFYRSLQPFIRAGLVNSLTQTVIKLTAPGVPDIYQGSEALNFSLVDPDNRREPDFATLAQQLDQLTPGVFSREESWLNGQVNQYVTAALLRLRQQNHELFRFGDYIPLRAVGQRADKVIAYARVNHDDALIVVAPRLVFAECDGLLSQSHSGFWSGTDIIIPGQLNQHRYRNVLTQERLMPGERLSLASHQGGVLVLMSD | not soluble
